Results: the supplement of paper PMC10567573

B1: PTPRD (parent)
chain: LTKLREMGREKCHQYWPAERSARY
B2: LCOR (parent)
chain: PCAGSTSLSHSPGCSSTQGNGRPG

Variants of: B1
Experiment: protein stability index of a GFP-peptide fusion (GPS, HEK-293T) (PSI 1-6); higher = more stable
Settings: c terminus: a fixed tail appended
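Also: lentivirally expressed fusions sorted by FACS into six bins by GFP to DsRed ratio, PSI derived from sequencing read proportions per bin multiplied by bin number.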

Protein stability index, by site and new letter:
K11: N 2.74 | V 2.53 | Y 2.39 | W 1.89 | H 2.4 | D 3.21 | R 2.26 | P 2.6 | Q 2.44 | F 2.14 | A 3.23 | L 2.21 | I 2.53 | T 2.5 | M 2.64 | E 3.17 | C 2.34 | G 2.61 | S 2.4
Y15: D 3.31 | L 2.46 | I 2.59 | T 2.82 | A 2.93 | W 1.99 | Q 2.79 | G 3.46 | K 3.1 | P 2.64 | E 3.54 | N 3.19 | R 2.82 | S 2.92 | F 2.86 | C 2.6 | H 3.41 | M 2.53
G8: W 1.85 | Y 2.03
C12: A 3.2 | M 2.1 | F 2.58 | V 2.35 | D 3.48 | W 2.25 | S 2.66 | Q 2.83 | H 2.83 | T 3.38 | E 3.11 | I 2.35 | G 2.98 | Y 2.98 | N 3.04 | K 2.27 | P 3.09 | L 2.39 | R 2.51
H13: K 2.53 | E 2.74 | Y 2.38 | F 2.15 | C 1.86 | W 1.77 | A 2.66 | V 2.02 | S 2.28 | N 2.79 | L 2.77 | D 3.17 | M 1.97 | Q 2.83 | G 2.66 | P 2.43 | T 2.65 | R 2.31 | I 2.33
S21: Q 2.08 | Y 2.61 | W 1.94 | R 2.16 | D 2.83 | F 2 | H 1.91 | P 2.24 | G 1.91 | C 1.7 | N 2.17 | M 1.96 | A 2.58 | L 1.96 | E 2.15 | V 2.17 | I 2.99 | K 2.72 | T 2.77
A18: Q 2.53 | V 2.26 | P 2.39 | F 2.21 | M 1.97 | R 2.13 | Y 1.97 | H 2.19 | C 2.31 | T 2.27 | G 2.06 | K 2.48 | L 1.87 | E 2.73 | D 2.49 | W 2.16 | N 2.16 | I 2.21 | S 2.17
Y24: A 2.59 | M 2.12 | V 2.41 | W 2.46 | R 2.7 | K 3.02 | E 3.1 | C 2.65 | P 2.5 | S 3.01 | I 2.29 | Q 2.65 | F 2.21 | T 2.35 | D 3.55 | L 2.31 | G 2.67 | H 2.75 | N 3.2
P17: W 2.04 | E 2.5 | R 2.37 | Q 2.16 | L 2.01 | F 1.99 | D 2.79 | I 2.25 | H 1.75 | T 2.32 | G 2.29 | K 2.58 | Y 2.17 | V 1.74 | N 1.84 | M 1.97 | C 1.79 | A 2.12 | S 2.09
Q14: E 3.05 | T 2.62 | P 1.69 | L 2.5 | N 2.64 | C 1.82 | G 2.46 | V 2.61 | M 2.04 | K 2.48 | R 2.04 | Y 1.85 | F 1.84 | A 2.46 | W 1.41 | H 2.95 | D 2.47 | I 2.27 | S 2.68
A22: T 3.02 | M 2.33 | L 2.12 | E 2.53 | Y 2.23 | N 2.57 | V 2.64 | W 1.83 | I 2.08 | K 2.65 | S 2.16 | H 2.21 | C 2.15 | P 2.65 | Q 2.54 | R 2.42 | G 2.33 | F 1.58 | D 2.4
R9: L 2.73 | C 2.15 | D 3.48 | W 2.04 | Y 2.16 | N 2.68 | M 2.8 | Q 3.05 | S 2.81 | K 2.84 | E 2.86 | T 2.65 | F 2.38 | A 2.64 | H 2.73 | P 2.53 | I 2.29 | V 1.92 | G 2.79
R20: N 2.62 | D 2.92 | E 2.69 | S 2.3 | W 1.51 | L 2.34 | H 2.2 | I 1.86 | K 2.28 | T 2.66 | F 1.93 | G 2.88 | M 2.25 | Y 2.33 | C 2.42 | V 2.03 | Q 2.38 | P 2.77 | A 2.05
E19: H 2.06 | W 2.15 | Q 2.2 | A 2.31 | P 2.29 | I 1.91 | K 2.75 | F 2.29 | S 2.29 | N 2.46 | V 1.67 | R 2.56 | L 1.7 | G 2.18 | D 2.81 | C 2.21 | Y 1.86 | T 2.21 | M 2.19
R23: P 3.02 | D 3.39 | N 2.24 | Q 1.74 | K 2.49 | E 2.67 | H 2.26 | W 1.68 | S 1.96 | C 2.06 | Y 1.6 | A 2.42 | L 2.09 | F 1.79 | V 1.85 | T 2.4 | I 1.99 | G 2.38 | M 1.69
E10: L 1.99 | T 1.87 | K 2.03 | W 2.15 | G 2.25 | H 2.05 | P 2.71 | N 2.46 | C 2.65 | R 2.42 | D 2.3 | A 2.08 | F 2.13 | I 1.91 | M 1.83 | Y 2.48 | S 2.3 | V 2.28 | Q 1.97
W16: M 2.85 | I 2.7 | S 2.84 | K 3.03 | N 3.5 | R 3.29 | H 2.91 | Q 3.26 | E 3.47 | L 2.96 | A 3.15 | P 3.27 | F 2.91 | D 3.8 | Y 2.58 | G 3.25 | T 2.6 | C 2.8 | V 2.76

Variants of: B2
Experiment: as above
Settings: c terminus: a fixed tail appended

Protein stability index, by site and new letter:
S7: Q 3.23
H10: L 4.39 | R 3.41
G13: H 3.46
T6: P 3.69 | R 4.93
Q18: D 2.98 | I 2.48 | Y 2.75 | F 2.27
S11: R 2.53 | F 3.1
L8: E 4.45
R22: S 5.07 | F 3.37
G21: A 3.63 | W 2.34
C14: K 5.01 | M 4.53
S5: A 2.98
S15: H 2.4
G24: D 3.72
G19: E 3.8 | W 1.91 | D 3.91
P1: L 3.57
S16: I 2.07
C2: Q 4.65
T17: E 3.47
